According to patent US20230242662A1 (BIOATLA, published 2023):

T1: huCD46-His (human, UniProt P15529 35-343)
T1 construct: extracellular domain; Immobilised by amine coupling on the SPR chip; It may be the same protein as the ELISA antigen; also called Human CD46-His; human CD46; not shown: His tag
T1 sequence (looked up): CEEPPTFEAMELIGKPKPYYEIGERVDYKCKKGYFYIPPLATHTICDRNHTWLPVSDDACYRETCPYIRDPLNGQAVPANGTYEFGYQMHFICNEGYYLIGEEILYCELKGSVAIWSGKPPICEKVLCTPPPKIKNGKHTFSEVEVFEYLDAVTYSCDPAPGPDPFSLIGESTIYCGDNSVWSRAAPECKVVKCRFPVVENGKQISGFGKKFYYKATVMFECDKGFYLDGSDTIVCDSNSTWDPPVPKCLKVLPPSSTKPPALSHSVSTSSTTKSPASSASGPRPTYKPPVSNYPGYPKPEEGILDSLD

T2: cynoCD46-His (cynomolgus, UniProt A0A2K5WCL8 35-328)
T2 construct: extracellular domain; Immobilised by amine coupling on the SPR chip; not shown: His tag
T2 sequence: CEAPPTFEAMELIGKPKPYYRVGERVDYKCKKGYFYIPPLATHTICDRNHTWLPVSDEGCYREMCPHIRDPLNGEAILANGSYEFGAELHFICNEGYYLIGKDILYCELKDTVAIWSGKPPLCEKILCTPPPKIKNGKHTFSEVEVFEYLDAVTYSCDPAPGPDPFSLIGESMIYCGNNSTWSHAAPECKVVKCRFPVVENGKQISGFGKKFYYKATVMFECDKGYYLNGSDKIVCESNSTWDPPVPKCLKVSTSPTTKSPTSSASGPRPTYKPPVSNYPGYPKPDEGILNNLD

T3: recombinant cyno CD46 antigen (cynomolgus, UniProt A0A2K5WCL8 35-328)
T3 construct: extracellular domain; Plate-coated antigen of the ELISA; also called cynomolgus CD46 extracellular domain
T3 sequence: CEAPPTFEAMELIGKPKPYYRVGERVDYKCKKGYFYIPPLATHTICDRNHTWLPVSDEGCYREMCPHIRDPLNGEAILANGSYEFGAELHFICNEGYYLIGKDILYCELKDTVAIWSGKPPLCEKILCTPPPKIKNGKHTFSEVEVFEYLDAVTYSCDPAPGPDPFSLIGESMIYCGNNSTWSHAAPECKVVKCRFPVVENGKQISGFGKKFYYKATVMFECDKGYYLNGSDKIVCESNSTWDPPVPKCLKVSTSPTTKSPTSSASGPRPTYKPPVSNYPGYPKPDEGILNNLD


Legend:
[1] = molecular target: T4, cyno CD46 expressed on 293 cells (cynomolgus); test: FACS, 293 cells expressing cyno CD46, pH 6.0
T4 construct: whole, on cells; The construct on the cells is not described; also called HEK 293 cells expressing cyno CD46
Procedure: (§1) A similar FACS analysis was also carried out using 293 cells expressing cyno CD46. […] The EC50 values for binding to the 293 cells expressing cyno CD46 by the conditionally active anti-CD46 antibodies are summarized in Table 6.

[2] = molecular target: T4, cyno CD46 expressed on 293 cells; test: FACS, 293 cells expressing cyno CD46, pH 7.4
Procedure: as §1

huCD46-His [3] = molecular target: T1, huCD46-His; test: SPR, huCD46-His immobilised, antibody as analyte, pH 6.0
Procedure: (§2) Binding kinetics of anti-CD46 antibodies were measured by surface plasmon resonance on a SPR2/4 instrument (Sierra Sensors, Hamburg, Germany) and flat amine sensor chips. The SPR sensor contained four flow cells (FC1-FC4), each of which can be addressed individually or in groups. huCD46-His was immobilized in FC2, and cynoCD46-His was immobilized in FC4. No protein was immobilized in FC1 and FC3 which were used as control surfaces for FC2 and FC4, respectively.
(§3) All injections were done at a flow rate of 25 μL/min and 25° C. The sensor surface was activated with 1-ethyl-3-(3-dimethylaminopropyl)-carbodiimide (EDC) and N-hydroxysuccinimide (NHS) (200 mM/50 mM) for 480 seconds. Human CD46-His (2 μg/mL in 10 mM NaAc, pH5.0) was injected for 480s and the surface was inactivated by injecting 1M ethanolamine-HCl for 480s. cynoCD46-His was immobilized using the same conditions as described for huCD46-His, except that it was diluted into 10 mM NaAc buffer pH4.5. The control surface was activated and deactivated using the same conditions, but without injecting protein. PBST buffer (PBS pH7.4 with 0.05% TWEEN20™) was used as running buffer for the surface preparation. The running solution was switched to PBST with 30 mM sodium bicarbonate with the pH adjusted as indicated in the figures before the analyte injections. The instrument was equilibrated with the running solution for one hour before the first analyte injection.
(§4) The off-rate was measured for 360 s. The chip surface was regenerated after each cycle of interaction by injecting 6 μL of 10 mM glycine (pH 2.0). Flow cells 1 and 3 without immobilized protein were used as control surfaces for reference subtraction.

huCD46-His [4] = molecular target: T1, huCD46-His; test: SPR, huCD46-His immobilised, antibody as analyte, pH 6.5
Procedure: as §2, §3, §4

huCD46-His [5] = molecular target: T1, huCD46-His; test: SPR, huCD46-His immobilised, antibody as analyte, pH 7.4
Procedure: as §2, §3, §4

cynoCD46-His [6] = molecular target: T2, cynoCD46-His; test: SPR, cynoCD46-His immobilised, antibody as analyte, pH 6.0
Procedure: as §2, §3, §4

cynoCD46-His [7] = molecular target: T2, cynoCD46-His; test: SPR, cynoCD46-His immobilised, antibody as analyte, pH 6.5
Procedure: as §2, §3, §4

cynoCD46-His [8] = molecular target: T2, cynoCD46-His; test: SPR, cynoCD46-His immobilised, antibody as analyte, pH 7.4
Procedure: as §2, §3, §4

[9] = molecular target: T3, recombinant cyno CD46 antigen; test: ELISA, coated cyno CD46; EC50 at pH 7.4 over EC50 at pH 6.0
Procedure: The binding activities of conditionally active anti-CD46 antibodies to cyno CD46 were measured by ELISA and are shown in FIGS. 3-4. The EC50 values for binding to the cyno CD46 at pH 6.0 and pH 7.4 for the conditionally active anti-CD46 antibodies are summarized in Table 2.
[…] Cover with sealing film and place the plate onto a plate shaker set to 50 rpm for 60 minutes at room temperature. [0351] 6) Decant plates and tap out residual liquid on a stack of paper towels. [0352] 7) Serially dilute test articles in 3-fold dilutions starting at 3000 ng/mL in pH 6.0 or pH 7.4 ELISA incubation buffer. [0353] 8) Add 100 μL/well of diluted test articles to the plates [0354] 9) Cover with sealing film and place the plates onto a plate shaker set to 50 rpm for 60 minutes at room temperature. […] 10) Decant plates and tap out residual liquid on a stack of paper towels. [0356] 11) Wash wells three times by dispensing 200 μL of pH 6.0 or pH 7.4 ELISA wash buffer to the wells and completely aspirate the contents. [0357] 12) Dilute the HRP secondary antibody at 1:2500 in pH 6.0 or pH 7.4 ELISA incubation buffer. [0358] 13) Add 100 μL HRP secondary antibody diluted in pH 6.0 or pH 7.4 ELISA incubation buffer to each well [0359] 14) Cover with sealing film and place the plates onto a plate shaker set to 50 rpm for 60 minutes at room temperature. [0360] 15) Decant plates and tap out residual liquid on a stack of paper towels. [0361] 16) Wash wells three times by dispensing 200 μL of pH 6.0 or pH 7.4 ELISA wash buffer to the wells and completely aspirate the contents. [0362] 17) Dispense 50 μL per well of the TMB substrate solution into all wells of the plates. Incubate at room temperature for about 2 minutes 15 seconds or 2 minutes. […] 18) Add 50 μL per well of 1N HCl into all wells of the plates. Read plates at 450 nm using PerkinElmer, EnSpire 2300 Multilabel Reader.

[10] = molecular target: T4, cyno CD46 expressed on 293 cells; test: FACS, 293 cells expressing cyno CD46; EC50 at pH 7.4 over EC50 at pH 6.0
Procedure: as §1

EC50 [1] [µg/mL] | EC50 [2] [µg/mL] | Kd (huCD46-His [3]) [nM] | koff (huCD46-His [3]) [s⁻¹] | kon (huCD46-His [3]) [M⁻¹ s⁻¹] | Kd (huCD46-His [4]) [nM] | koff (huCD46-His [4]) [s⁻¹] | kon (huCD46-His [4]) [M⁻¹ s⁻¹] | Kd (huCD46-His [5]) [nM] | koff (huCD46-His [5]) [s⁻¹] | kon (huCD46-His [5]) [M⁻¹ s⁻¹] | Kd (cynoCD46-His [6]) [nM] | koff (cynoCD46-His [6]) [s⁻¹] | kon (cynoCD46-His [6]) [M⁻¹ s⁻¹] | Kd (cynoCD46-His [7]) [nM] | koff (cynoCD46-His [7]) [s⁻¹] | kon (cynoCD46-His [7]) [M⁻¹ s⁻¹] | Kd (cynoCD46-His [8]) [nM] | koff (cynoCD46-His [8]) [s⁻¹] | kon (cynoCD46-His [8]) [M⁻¹ s⁻¹] | Binder | other results
0.0947 | 0.944 | 2.51 | 0.00207 | 824000 | 1.91 | 0.00176 | 922000 | 4.93 | 0.00241 | 490000 | 1.02 | 0.00146 | 1.42e+06 | 1.09 | 0.00145 | 1.33e+06 | 2.28 | 0.00154 | 673000 | BA-133-04-04 (antibody, V domains shown, the killing assays used the ADC form; also called CPE hit BA133-04-04) VH: EVQLVESGGGLVQPGGSLRLSCAASGGSVSSYDISWIRQSPSRGLEWLGVIWTDGGTNYNSAFMSRFTISRDDSKNTAYLQMNSLKTEDTAVYYCERVYDGYPWFAYWGQGTLVTVSS VL: AIQLTQSPSSLSASVGDRVTITCRASQGISNYLNWYLQKPGQSPQLLIYYTSSLHEGVPDRFSGSGSGTDFTLKISRVEAEDVGVYYCQQYIKLPWTFGQGTKVEIK | ratio (ph 7.4/pH 6.0) [9]: 13; Ratio (pH 7.4/6.0) [10]: 10
0.198 | 2.92 | 7.51 | 0.00404 | 539000 | 5.78 | 0.00282 | 488000 | 8.79 | 0.00225 | 256000 | 1.45 | 0.00184 | 1.27e+06 | 1.47 | 0.0017 | 1.16e+06 | 3.88 | 0.00192 | 495000 | BAP133-2-02-12 (antibody, V domains shown, also called BAP133-02-02-12; CPE hit BAP133-2-02-12) VH: EVQLVESGGGLVQPGGSLRLSCAASGGSVSSYDISWIRQSPSRGLEWLGVIWTDGGTNYNSAFMSRFTISRDDSKNTAYLQMNSLKTEDTAVYYCERVYDGYPWFAYWGQGTLVTVSS VL: AIQLTQSPSSLSASVGDRVTITCRALQGISNYLNWYQQKPGKAPKLLIYYTSSLHSGVPSRFSGSGSGTEFTLTISSLQPDDFATYYCQQYIKLPWTFGQGTKVEIK | ratio (ph 7.4/pH 6.0) [9]: 13.3; Ratio (pH 7.4/6.0) [10]: 14.8
